Experiments:
[1] = biological target: T1, GST-p300CH1 (p300 residues 300-528) (UniProt Q09472 300-528); assay: GST pull-down of 35S-labelled in vitro translated protein on GST-p300CH1
T1 construct: range 300-528; Bacterially expressed, immobilised on glutathione beads; the construct is described in Bhattacharya et al., 1999; also called GST-CH1; GST tagged p300 (CH1 domain); not shown: glutathione S-transferase tag from pGEX4T1 (Pharmacia)

[2] = biological target: T2, GAL4-CH1 (residues 300-528 of p300 fused to the DNA-binding domain of GAL4) (UniProt P04386 1-147; Q09472 300-528); assay: mammalian two-hybrid, GAL4-luciferase reporter, Hep3B cells
T2 construct: also called GAL4-p300CH1

T1 sequence (Q09472 300-528): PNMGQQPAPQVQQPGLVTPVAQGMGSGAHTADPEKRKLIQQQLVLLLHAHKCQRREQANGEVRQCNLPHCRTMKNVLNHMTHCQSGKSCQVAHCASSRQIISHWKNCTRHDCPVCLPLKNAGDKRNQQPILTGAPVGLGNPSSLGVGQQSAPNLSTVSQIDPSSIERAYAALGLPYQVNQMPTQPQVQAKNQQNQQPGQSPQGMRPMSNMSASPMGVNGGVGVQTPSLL

Row | Binder | binding result [1] | binding result [2]
1 | HCITEDX mutant lacking the carboxy-terminal residues 138 to 184 (other, 35S-labelled (in vitro translated) in the GST pull-down assay, also called HCITEDXΔ; carboxy-terminal mutant) MADHLMLAEGYRLVQRPPSAAAAHGPHALRTLPPYAGPGLDSGLRPRGAPLGPPPPRQPGALAYGAFGPPSSFQPFPAVPPPAAGIAHLQPVATPYPGRAAAPPNAPGGPPGPQPAPSAAAPPPPAHALGGMDAELI | no binding | –
2 | VP16-HCITEDX? (VP16 activation domain fused to residues 1-137 of HCITEDX) (other, also called VP16-HCITEDXΔ) MADHLMLAEGYRLVQRPPSAAAAHGPHALRTLPPYAGPGLDSGLRPRGAPLGPPPPRQPGALAYGAFGPPSSFQPFPAVPPPAAGIAHLQPVATPYPGRAAAPPNAPGGPPGPQPAPSAAAPPPPAHALGGMDAELI | – | no binding

From US20040053231A1 (published 2004)
